Assay results as given in the DeepSol protein solubility set.

Assay: soluble on expression in E. coli; label from the status in PepcDB or PDB records

Soluble on expression in E. coli, not soluble:
MRQRYLALLSLFASLPAMAISFQTRLESIEWKVEGDQFECRLTQPITDFGAGEFVRRAGEQATFRLKASYNMLGNGSATLLAAAAPWQPGRGDINLGSVRVSNGDIPFNTSQAQAGRLISGLMDGRSPLIRHYNRDGGQMEVRLLPVKFSKAFSDYQACTAKLLPMNFDQVKQAEVGFPGGGIELDANAKARLDNMVAYLKADPTVNRIELDGHSDNSGNRLTNRDLSRRRALAVMDYFKAQGIPEQQITLRFHGERYPLAPNTNNANRARNRRVNVHLERVAPDERPVPVASSASAAHTS, MRRFLTLTVALGFLSACEVSDPGPVAPLPKVPDSPPMSASAAQSAFASVSARVRPVAVRECQQRTQGANCDFKIQIDPDPKAPVNAYQTVGKNGQPLIIFTRSMIATARNADELAFVMGHEAAHHIRGHLARQNASAIAGAVILGGLVGLAGGGASTIDAATQIGASVGARTYSKEYELEADELGTVITHKAGYNPLVGAHFFSRIPDPGDRFLGSHPPNAARIQTVQRTAGSLGLTQLEHHHHHH, MRRKIMMATLIVIAVNFIWSGQPVKACTRAVYIGPDNMVITGRTMDWKEDIQSNLYLFPRGIKRAGYNKGNTVEWISKYGSIVATGYDIGTCDGMNEKGLVASLLFLPESIYVRPNDTRPVMGISIWTQYVLDNFATVSEAVEELKKQTFRIDAPDMPNGSASTLHMAITDETGNSAVLEYIDGNLIIHEGKEYQVMTNSPRYDLQLAVNDYWKEVGGLNMLPGTNRSSDRFVRASFYIHAIPQTSDAKIAVPSVLSVMRNVSVPFGITTLDKPYISSTRWRSVSDQKNRVYYFESTLTPNLFWIDLHKVDFSPNASIKKLSLTHGEVYAGDVVKDFKDSRSFTFMFELPK, MRRKSVLYLEVADQIKEDILSGKYPVGTFLPTETELEELFNVSKITIRRAIEMLATEEFVEKKSGRGTTVLSNRPYNKLSKAGTFTEFLNESGQKVTKKVLQVENLTLSKEMPAYQFLGEEVVHLSRLYLIDEQPYIYFNYYLPAAMKDVSLTEYKEESLYRLMDRHAIEIYKFEDRFEVATLTEAEQKMLQTTETTGLKRIRRSLSPTGRCVEYSEAIYNTKIHPYVIEYEA

Soluble on expression in E. coli, soluble:
MRPPLIERYRNLLPVSEKTPVISLLEGSTPLIPLKGPEEARKKGIRLYAKYEGLNPTGSFKDRGMTLAVSKAVEGGAQAVACASTGNTAASAAAYAARAGILAIVVLPAGYVALGKVAQSLVHGARIVQVEGNFDDALRLTQKLTEAFPVALVNSVNPHRLEGQKTLAFEVVDELGDAPHYHALPVGNAGNITAHWMGYKAYHALGKAKRLPRMLGFQAAGAAPLVLGRPVERPETLATAIRIGNPASWQGAVRAKEESGGVIEAVTDEEILFAYRYLAREEGIFCEPASAAAMAGVFKLLREGRLEPESTVVLTLTGHGLKDPATAERVAELPPPVPARLEAVAAAAGLL, MRQKGHRHGRTVSPCAGCKLLRRKCVKDSCVFAPYFPAKEPYKFAIVHKIFGASNVNKMLQELSENHRSDAVDSMVYEANARIQDPVYGCVGTISSLHRQLETLQTQLAFAQAELIHIRTLHRIHTKPPPYTASTVTFPSNKDFYSDIDMAVAYTDDAGDFLWSC, MRRKMERIALIEDDKDLAFLVKLNLEREGFEVEHFERATPFFKFISENSVDLILIDIMLPDLDGFRIANFLKSRADLKEIPVIFITAKGEEEDKLKGFELGADDYITKPFSMKELIARVRAVLKRYKKVSESKVLKYEGVELDTERQKLFVDGREVYLTPAEFKILKTLMENFGRPVSRSSLVEKLWDYERETTERAIDVHVKHIRDKLGKYKGLIKTVRGVGYKFEN, MRRLLTLWVLGLGALAQVPVGQVATRDVHALLWLPDGRLLFGHHDGLQVSEDEGRTWRDLVRKTGFDAMEHSFWRGDRLLAAEHWVLSESRDGGKTWRSFRPRGLPALDLHGYAASGGLHFALEATHGYFVSEDGGKTFKSTAPKGLPKAGMAAMVFQGKTLYVAPMGQGLYQSSDGGRTFTQVPTPEREIYALATGAGTLYLGGKTGLWQRTPAGWKRLWQGAVLALAAHPQEAGRLVFIDGQERVWKLP, MRRRRRRDGFYLAPDFRHREAEDMAGVFDIDLDQPEDAGSEDELEEGGQLNESMDHGGVGPYELGMEHCEKFEISETSVNRGPEKIRPECFELLRVLGKGGYGKVFQVRKVTGANTGKIFAMKVLKKAMIVRNAKDTAHTKAERNILEEVKHPFIVDLIYAFQTGGKPYLILEYLSG
